From PMC2837123

Molecular target: full-length wild type prototype foamy virus (PFV) integrase (prototype foamy virus (PFV))
Assay: crystal structure

In the case of “full-length wild type prototype foamy virus (PFV) integrase (enzyme)”, the stoichiometry N is reported as 4.
